“And” between values parts separate entries of the source, which are not always exact repeats. Equal values may be shown once.
Target: IL-12 receptor on mouse lineage negative bone marrow cells (mouse) (UniProt Q60837)
Experiment: cell-based or functional assay

IL-12 receptor on mouse lineage negative bone marrow cells (mouse), sequence (Q60837 20-738, chain 1 of 2): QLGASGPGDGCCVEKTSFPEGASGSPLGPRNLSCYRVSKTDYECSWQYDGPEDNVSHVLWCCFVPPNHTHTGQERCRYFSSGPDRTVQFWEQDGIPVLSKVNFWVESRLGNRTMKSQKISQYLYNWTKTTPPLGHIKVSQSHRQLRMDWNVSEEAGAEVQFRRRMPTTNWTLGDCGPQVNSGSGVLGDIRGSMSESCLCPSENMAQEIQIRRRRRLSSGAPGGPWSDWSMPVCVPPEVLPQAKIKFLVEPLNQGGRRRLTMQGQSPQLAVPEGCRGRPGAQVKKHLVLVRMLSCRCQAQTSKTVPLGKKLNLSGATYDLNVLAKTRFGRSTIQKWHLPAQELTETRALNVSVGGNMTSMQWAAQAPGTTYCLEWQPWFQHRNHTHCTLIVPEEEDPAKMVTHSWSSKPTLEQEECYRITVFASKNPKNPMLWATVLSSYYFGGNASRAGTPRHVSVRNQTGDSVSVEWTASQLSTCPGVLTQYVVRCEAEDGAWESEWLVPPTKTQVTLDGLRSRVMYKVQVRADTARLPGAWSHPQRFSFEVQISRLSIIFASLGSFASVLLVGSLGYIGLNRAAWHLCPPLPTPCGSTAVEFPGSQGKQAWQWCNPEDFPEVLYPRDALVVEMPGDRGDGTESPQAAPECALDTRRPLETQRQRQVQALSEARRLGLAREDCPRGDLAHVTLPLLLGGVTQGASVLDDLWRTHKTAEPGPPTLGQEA
IL-12 receptor on mouse lineage negative bone marrow cells (mouse), sequence (P97378 24-874, chain 2 of 2, further chain): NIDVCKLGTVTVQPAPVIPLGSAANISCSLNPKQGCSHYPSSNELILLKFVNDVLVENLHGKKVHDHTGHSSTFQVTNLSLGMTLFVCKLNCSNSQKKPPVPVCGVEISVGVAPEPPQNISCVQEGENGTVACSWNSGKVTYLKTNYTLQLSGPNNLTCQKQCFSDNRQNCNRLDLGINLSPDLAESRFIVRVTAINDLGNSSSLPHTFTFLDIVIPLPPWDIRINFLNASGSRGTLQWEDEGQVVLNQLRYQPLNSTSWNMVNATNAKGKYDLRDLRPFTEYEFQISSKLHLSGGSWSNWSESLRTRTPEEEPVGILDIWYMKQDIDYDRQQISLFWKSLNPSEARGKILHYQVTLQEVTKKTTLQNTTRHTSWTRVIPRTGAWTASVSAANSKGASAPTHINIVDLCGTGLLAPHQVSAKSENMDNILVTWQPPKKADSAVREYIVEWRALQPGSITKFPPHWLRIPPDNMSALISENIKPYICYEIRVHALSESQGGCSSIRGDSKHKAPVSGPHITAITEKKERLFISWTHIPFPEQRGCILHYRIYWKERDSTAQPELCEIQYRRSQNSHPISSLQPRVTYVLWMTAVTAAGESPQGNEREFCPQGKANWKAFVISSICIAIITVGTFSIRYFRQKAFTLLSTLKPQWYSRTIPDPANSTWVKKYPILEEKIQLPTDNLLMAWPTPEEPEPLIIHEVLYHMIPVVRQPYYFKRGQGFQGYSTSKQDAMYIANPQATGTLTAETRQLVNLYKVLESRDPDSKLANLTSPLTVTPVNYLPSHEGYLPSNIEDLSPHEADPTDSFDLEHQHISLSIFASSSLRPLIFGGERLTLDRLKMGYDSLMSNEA

## exogenous IL-12 (IL-12 ligand) injected into C57BL/6 mice in Example 7
  Fold-Increase in Lin- IL-12R+ cells (FACS of bone marrow after in vivo IL-12, 100 ng/mouse): 5.4 fold and 3.5 fold

From US20130259828A1
